According to the supplement of paper PMC10724198:
± gives the standard deviation of the averaged measurements.

test system: Saccharomyces cerevisiae; assay: protein stability index of tFT-peptide fusion (C-terminal peptide) (PSI (0-1 scale)); higher = more stable (slower turnover); conditions: genetic background: wild type; temperature: 30 C
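Further: PSI is a weighted mean of sequencing reads over stability bins, variants kept only with over 10 reads, mCherry proximal and sfGFP distal, peptide attached via GGGS linker.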

Sequence	protein stability index
LVRGKGGRGIEG	0.698 ± 0.074
LVRMCLFNMHFS	0.698 ± 0.018
LVRNGLCCTSRQ	0.704 ± 0.029
LVSACIRFPPSH	0.716 ± 0.079
LVSFLFAPLPLS	0.704 ± 0.038
LVSLGLHAGKRI	0.70514 ± 0.0004
LVVCWGCGLGVL	0.71 ± 0.033
LVVSPPPLPFPS	0.689 ± 0.013
LWAQRASPPWYQ	0.606 ± 0.047
LWCPLLTSFPSY	0.726 ± 0.078
LWFWAVECGLGG	0.713 ± 0.32
LWGGGGAGYWVG	0.732 ± 0.035
LWGYFRTAASFV	0.645 ± 0.095
LWLLVAPGPPAQ	0.682 ± 0.027
LWSYFLGLHPSD	0.773 ± 0.038
LWVESRFVQTFL	0.6663 ± 0.0013
LYKSEGVYTGFW	0.729 ± 0.12
LYLKKIQQGIIK	0.69 ± 0.039
LYPEELQATAVY	0.5892 ± 0.00086
LYPTISCSARDG	0.699 ± 0.013
LYSNVLAAVMTG	0.623 ± 0.043
MAARGTEQGTMP	0.71 ± 0.061
MACCGVFISHKT	0.615 ± 0.026

Sequence	protein stability index
MAEGRARLWGPS	0.701 ± 0.024
MARIASAQTSLT	0.688 ± 0.016
MESAGVGRVVWR	0.654 ± 0.051
MGACGGRVGKFG	0.662 ± 0.035
MGAVGGLCGMWA	0.711 ± 0.029
MGCDGSMAPRSL	0.6608 ± 0.0029
MGFRSVRGWVSL	0.699 ± 0.093
MGGVEMSNRIWE	0.663 ± 0.009
MGHKDDRGFADR	0.657 ± 0.013
MGIVEGIGASSL	0.662 ± 0.036
MGKSLCLFTQPI	0.668 ± 0.09
MGMSAGCGGWSG	0.6867 ± 0.0055
MHATWTLRRHGH	0.523 ± 0.04
MIASRVSYDMSY	0.608 ± 0.043
MICGCLWGSEGR	0.627 ± 0.11
MIRVRGRQKIEG	0.724 ± 0.13
MKTNFLDVKILM	0.7186 ± 0.0059
MLGLHSDTRRSR	0.673 ± 0.022
MMEQLCCRRRLF	0.496 ± 0.041
MMMRKAPTARVS	0.637 ± 0.024
MNHHSDCLLRLW	0.648 ± 0.0084
MNNYWKNSTKIK	0.737 ± 0.025
MNRTDPSRDEKP	0.804 ± 0.094

Sequence	protein stability index
MNSDQSGQGLTV	0.711 ± 0.011
MPKVIIGMSVTK	0.687 ± 0.015
MPNQTEARRKWV	0.633 ± 0.044
MQLPSHFEAWTS	0.781 ± 0.03
MRIKKQNIRNDT	0.615 ± 0.063
MRPSLIKVFLTR	0.632 ± 0.04
MRRSSKPRLSLT	0.725 ± 0.049
MSRPSLARLPAS	0.711 ± 0.011
MTESLIGCLSGD	0.7 ± 0.0074
MTIMPSPLGVVH	0.514 ± 0.055
MTLSCGVGLTVG	0.6521 ± 0.0009
MVGAWCAGIPGI	0.668 ± 0.0022
MVMEGLRTLSCQ	0.6589 ± 0.0061
MVRRDGMTVSLG	0.719 ± 0.028
MVTWSDRVIKSW	0.733 ± 0.023
MVVGWGGVEPVG	0.758 ± 0.048
MWVCGFVGGGGG	0.654 ± 0.035
NAHHSASPSHCF	0.6471 ± 0.0059
NALGRPSAFILT	0.695 ± 0.057
NAVSFVKGRLVY	0.657 ± 0.028
NCSSNNRQSENI	0.644 ± 0.017
NDNNSRSGRRIF	0.66 ± 0.019
NDRLDRRDWWEG	0.695 ± 0.022

Sequence	protein stability index
NELRTFLGDRDI	0.675 ± 0.043
NEPNIRDRSIFS	0.688 ± 0.015
NEQPSKLLAKEC	0.866 ± 0.13
NFRTHRHLVARS	0.762 ± 0.019
NGISQWMGIGGQ	0.667 ± 0.011
NGRNKKRKCLQT	0.706 ± 0.086
NGSIENIAKRKK	0.639 ± 0.077
NGTGGASSLAFG	0.689 ± 0.052
NGTGGVSSLAFG	0.6399 ± 0.0013
NHRANKIRKCKD	0.6298 ± 0.0016
NIAGHLHQPVQM	0.712 ± 0.029
NIGVKNVVLVEG	0.537 ± 0.043
NIRLRRKIIINK	0.562 ± 0.088
NKEIKKIRIKKE	0.664 ± 0.076
NKIRIIQVNLNR	0.699 ± 0.17
NKKIEDYDKNKN	0.6835 ± 0.00098
NKKKGYRKKQNH	0.567 ± 0.032
NKKKKETKNAQQ	0.698 ± 0.013
NKKKNKKIRQEK	0.685 ± 0.017
NKNKENMKRKTK	0.682 ± 0.039
NKNKKKIKHKRK	0.669 ± 0.051
NKQNKEIQPKRK	0.653 ± 0.021
NKQTAEIGRGSC	0.651 ± 0.03

Sequence	protein stability index
NKRCRNITIQRA	0.73379 ± 0.00047
NKRLKNKIKRIK	0.651 ± 0.037
NLPLVDIIPISN	0.828 ± 0.025
NNSLPTDVDKYL	0.683 ± 0.019
NPYKREKKKNKK	0.787 ± 0.14
NQKEIKYTLKYI	0.684 ± 0.018
NQVNEELDKKGH	0.719 ± 0.14
NRQDASAPVCLL	0.719 ± 0.049
NRRPLVQNGKLF	0.67849 ± 0.00026
NRVRVNSSYGRD	0.71 ± 0.018
NSGSRGTRVVGL	0.705 ± 0.084
NSKGKKFKCLKK	0.766 ± 0.0099
NSSEIGQNADTA	0.672 ± 0.025
NTRKIEAVGSER	0.658 ± 0.024
NTTKLEKRGNIE	0.574 ± 0.084
NVGEWGTAVMSR	0.684 ± 0.034
NVLIASGIEVKK	0.629 ± 0.0099
NVTIRVAIRYHE	0.575 ± 0.021
NVWGTGGMCTFV	0.7058 ± 0.0019
NWRAAGQSGPES	0.67 ± 0.012
NYKVRKQKVDRN	0.674 ± 0.062
PACPPTSDFPSL	0.623 ± 0.073
PAFRSDKQQSQE	0.703 ± 0.074

Sequence	protein stability index
PAGVDQPYIPGE	0.6002 ± 0.0054
PAHSTEVVPRVL	0.717 ± 0.018
PALAPLRPLPPV	0.669 ± 0.0073
PALCGGFFLVGV	0.636 ± 0.019
PALGLELYFVLV	0.519 ± 0.012
PALLRLGTGAVG	0.711 ± 0.047
PALPFAPPPLPP	0.685 ± 0.02
PALPPASPRPAL	0.776 ± 0.072
PALPPPGSPPPS	0.616 ± 0.01
PANRGPPTPFSP	0.729 ± 0.024
PAPAPPPSPLPP	0.655 ± 0.028
PAPGLTPAGRAP	0.777 ± 0.14
PAPPFPIRPPAA	0.653 ± 0.015
PAPPPLPSAAPP	0.706 ± 0.14
PAPPPPARPALP	0.706 ± 0.027
PAPPPPFPPSPP	0.695 ± 0.039
PAPPPVRPRSLP	0.627 ± 0.021
PAPRWFSHPSYP	0.676 ± 0.01
PAPSASPPLLRC	0.722 ± 0.03
PAPSPLPPPPSL	0.6978 ± 0.0057
PASCARVFVGMS	0.67 ± 0.037
PASDPPHRDPPH	0.658 ± 0.019
PCASGSPRFCQR	0.707 ± 0.025

Sequence	protein stability index
PCLSFPPALRAA	0.641 ± 0.012
PCPIGGRPCRVG	0.7275 ± 0.0037
PCPPNSPPLSPT	0.71 ± 0.043
PCPPPRSPPLAP	0.74539 ± 0.00027
PCRLTRSPRTLP	0.689 ± 0.1
PCSLPLVLSFPH	0.6846 ± 0.0037
PCSPLSLPPPFP	0.722 ± 0.0073
PCSVPHSGSAPA	0.712 ± 0.044
PDEFIAKRWNST	0.62 ± 0.012
PDVNEATPKLWC	0.694 ± 0.027
PDYPLSCLLFFP	0.643 ± 0.011
PELCLSSPSSLS	0.686 ± 0.018
PESAWLSPRCVF	0.6696 ± 0.0039
PFAFLSPLIPPP	0.749 ± 0.013
PFFFLWSLYFFL	0.5096 ± 0.0038
PFFSFGGLRFLL	0.6621 ± 0.0053
PFGSYIRHRENT	0.759 ± 0.14
PFHSLSATFPPR	0.768 ± 0.086
PFLFPLLSPFSV	0.681 ± 0.019
PFLHPTRLARSN	0.712 ± 0.011
PFLSPPPPSTPP	0.704 ± 0.01
PFPHLYTPRLLF	0.571 ± 0.014
